Source: the supplement of paper PMC10724198
± gives the standard deviation of the averaged measurements.

System: Saccharomyces cerevisiae
Assay: protein stability index of tFT-peptide fusion (C-terminal peptide) (PSI (0-1 scale)); higher = more stable (slower turnover)
Settings: genetic background: wild type; temperature: 30 C
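Further: PSI is a weighted mean of sequencing reads over stability bins, variants kept only with over 10 reads, mCherry proximal and sfGFP distal, peptide attached via GGGS linker.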

| Sequence | protein stability index |
| --- | --- |
| WVGCALEQGGAV | 0.71 ± 0.0019 |
| PLTPVRCSICSV | 0.64 ± 0.037 |
| GACHNVGVGPLG | 0.67 ± 0.024 |
| PPTPQRRRSPPP | 0.7326 ± 0.0066 |
| ITLSCFPRPFPL | 0.691 ± 0.02 |
| PTHPSRLRLFSA | 0.612 ± 0.024 |
| GKSRRQGCDPRR | 0.659 ± 0.035 |
| SRLPGLELCNRI | 0.675 ± 0.041 |
| IAGMFSLKFGVP | 0.714 ± 0.082 |
| APRPSLTPLSTP | 0.653 ± 0.09 |
| RLGGAACLRSEC | 0.627 ± 0.04 |
| PYPLSSLSPSRP | 0.702 ± 0.11 |
| SEGCASLSGRVG | 0.665 ± 0.047 |
| RFVHCRRKVAKR | 0.667 ± 0.047 |
| SPLSLPSPATFP | 0.688 ± 0.05 |
| GTETFHDASIGI | 0.653 ± 0.016 |
| QNQVERREFRFS | 0.701 ± 0.088 |
| HHRVLRCNNPFR | 0.731 ± 0.12 |
| LVRFTDPIPQQA | 0.615 ± 0.026 |
| DWGGRRVTEEEG | 0.641 ± 0.029 |
| FKKTSRHTINRK | 0.757 ± 0.023 |
| GWKLGAVRRGVI | 0.706 ± 0.015 |
| LVVSHDSSLMMR | 0.7363 ± 0.0045 |
| YSGSYIEPREIR | 0.626 ± 0.087 |
| KYLPSVVYIYRL | 0.531 ± 0.023 |
| CRPVPGGLFVVS | 0.669 ± 0.064 |

| Sequence | protein stability index |
| --- | --- |
| NIHKNKKKGLKE | 0.686 ± 0.0088 |
| PSFPPLLSSSSI | 0.763 ± 0.11 |
| SRELPPPLLRSS | 0.692 ± 0.072 |
| NTPHSRSLRSNH | 0.695 ± 0.017 |
| RAACALSRRGLM | 0.926 ± 0.1 |
| LPSTQSPPPPLP | 0.705 ± 0.077 |
| ARATPLWDLMPP | 0.615 ± 0.094 |
| VVCRDGLSSCVG | 0.623 ± 0.019 |
| NSVMSRGCGNRG | 0.626 ± 0.044 |
| SVLTSYFFYLPP | 0.6869 ± 0.0046 |
| STSHSFGVLIAS | 0.662 ± 0.0094 |
| ILSFPYSQYFMS | 0.7242 ± 0.0052 |
| VVSSFHYTSRQC | 0.744 ± 0.1 |
| VAGLARVSLHGF | 0.6746 ± 0.0052 |
| GVGGVARGERIP | 0.678 ± 0.0085 |
| PPTRSLYLLPLI | 0.6983 ± 0.0035 |
| ENLVLRDRGRGM | 0.692 ± 0.017 |
| FMPRPSNRLSPS | 0.723 ± 0.0078 |
| SYGPSRPARVPS | 0.695 ± 0.05 |
| DVNTGYHFLRDL | 0.6757 ± 0.0015 |
| QKTKTKKIRKKK | 0.7014 ± 0.0018 |
| GVSWSWGDLAVL | 0.756 ± 0.016 |
| RGWWVLWGGGWG | 0.551 ± 0.025 |
| LLPSPPPPTSLP | 0.728 ± 0.033 |
| ATSYRPPHFAIP | 0.693 ± 0.011 |
| GVLGGAGCGVVL | 0.731 ± 0.023 |

| Sequence | protein stability index |
| --- | --- |
| RMTRIKKKINKS | 0.719 ± 0.034 |
| HLPPPPSPSPPP | 0.686 ± 0.012 |
| GKRKREEDEEKK | 0.686 ± 0.097 |
| GVCASGAGSVGG | 0.662 ± 0.029 |
| PPRPPPSPPSFP | 0.688 ± 0.014 |
| PPPHTHPPTPLL | 0.689 ± 0.011 |
| PTPSPPLPPITP | 0.773 ± 0.024 |
| LFFNLLLFFSFI | 0.488 ± 0.018 |
| SLTAPPNLASPW | 0.705 ± 0.089 |
| TIKSATLVSFST | 0.671 ± 0.072 |
| IKPTRKKTISTR | 0.715 ± 0.095 |
| RNLFRRAPNQGL | 0.723 ± 0.043 |
| SRLPIVGYLTLL | 0.56 ± 0.036 |
| SCQISVRLHVSH | 0.612 ± 0.016 |
| GEGPTGAKQDYV | 0.6239 ± 0.0023 |
| TSRSPLVAPNPS | 0.738 ± 0.083 |
| DGHSAAAFCVRG | 0.748 ± 0.1 |
| SPRVLSLLLRSM | 0.5811 ± 0.0036 |
| IIRINSKMGSRK | 0.725 ± 0.0078 |
| GRVRGRGEGPVA | 0.675 ± 0.049 |
| PRTHPPPPAPCR | 0.6634 ± 0.0054 |
| PAPPCPGTSPFP | 0.7055 ± 0.001 |
| IQAERKKSYKDT | 0.616 ± 0.075 |
| TPWQTREVTRAR | 0.691 ± 0.057 |
| PLFPRPFPPPRS | 0.717 ± 0.0091 |
| PHPPPLPPLPSP | 0.721 ± 0.053 |

| Sequence | protein stability index |
| --- | --- |
| ACLLYSGFSTEL | 0.654 ± 0.0066 |
| IWAKLGFRLQYS | 0.701 ± 0.13 |
| GERWSGVGEWVW | 0.739 ± 0.014 |
| APSGFRRKDVDL | 0.68 ± 0.034 |
| QQLILCLFSPFP | 0.655 ± 0.015 |
| PIPPPPPPPPDP | 0.652 ± 0.017 |
| SAPCHAHHLPYQ | 0.73 ± 0.026 |
| PLLPRPPPLPPP | 0.703 ± 0.055 |
| EERNNQRKKRKG | 0.709 ± 0.038 |
| APSRTTERILLL | 0.714 ± 0.029 |
| LVFAAGCVGGVR | 0.633 ± 0.021 |
| ANRGYRYGASRV | 0.649 ± 0.017 |
| ILRLVGRGLVLL | 0.639 ± 0.013 |
| GRYGPTIPRGEP | 0.696 ± 0.017 |
| PSSSSPPPTFSL | 0.625 ± 0.066 |
| CLATVFWHHVKF | 0.63 ± 0.058 |
| WTTWAYFSDPTS | 0.621 ± 0.021 |
| DRGSGRFVRGGL | 0.664 ± 0.083 |
| PPPHPPHSALPS | 0.762 ± 0.021 |
| SLLSFLLRSFFP | 0.722 ± 0.065 |
| ILFVTASSFSPP | 0.67 ± 0.045 |
| VGSMRRYCRTKI | 0.792 ± 0.25 |
| PDSLHTLRPPPP | 0.653 ± 0.022 |
